Assay results taken from paper PMC4442024 (Nature, 2015).
Several values for one entry are separate records, joined by “and”; a condition that tells them apart may be missing. Equal entries are not always repeated. Each block holds one molecule with its values, some of them ahead of it.

B1: purified recombinant Flag-tagged SNAP29 (natural protein, human, UniProt O95721 1-258, looked up)
chain: MSAYPKSYNPFDDDGEDEGARPAPWRDARDLPDGPDAPADRQQYLRQEVLRRAEATAASTSRSLALMYESEKVGVASSEELARQRGVLERTEKMVDKMDQDLKISQKHINSIKSVFGGLVNYFKSKPVETPPEQNGTLTSQPNNRLKEAISTSKEQEAKYQASHPNLRKLDDTDPVPRGAGSAMSTDAYPKNPHLRAYHQKIDSNLDELSMGLGRLKDIALGMQTEIEEQDDILDRLTTKVDKLDVNIKSTERKVRQL

Assays:
[1] = biological target: purified recombinant ATG14 (UniProt Q6ZNE5); experiment: SEC-MALS
[2] = biological target: T1, purified recombinant Flag–STX17 (human, UniProt P56962 1-302); experiment: SEC
T1 sequence (looked up): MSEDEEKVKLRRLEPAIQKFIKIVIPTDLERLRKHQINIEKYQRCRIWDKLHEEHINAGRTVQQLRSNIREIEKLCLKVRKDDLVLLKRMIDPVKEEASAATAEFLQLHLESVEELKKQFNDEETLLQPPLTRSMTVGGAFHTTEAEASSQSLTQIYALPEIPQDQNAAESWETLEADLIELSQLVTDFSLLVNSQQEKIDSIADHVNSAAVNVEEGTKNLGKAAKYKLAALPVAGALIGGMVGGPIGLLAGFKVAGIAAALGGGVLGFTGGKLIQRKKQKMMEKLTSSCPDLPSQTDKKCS

[3] = biological target: B1; experiment: SEC

stoichiometry N [1]: 2 and 4
Molecule: purified recombinant ATG14 (from UniProt Q6ZNE5 1-492) (natural protein; other documents disagree on this pair)

Molecule: B1
binding result [2]: binds

binding result [3]: binds
B2: purified recombinant Flag-tagged VAMP8 (natural protein, human, UniProt Q9BV40 1-100, looked up)
chain: MEEASEGGGNDRVRNLQSEVEGVKNIMTQNVERILARGENLEHLRNKTEDLEATSEHFKTTSQKVARKFWWKNVKMIVLICVIVFIIILFIVLFATGAFS
